Patent US7101969 (TARGANTA THERAPEUTICS, dated 2006)

B6: S. aureus DnaI (native protein from S. aureus cell extract) (other)
chain: MGGGQSIMKQFKSIINTSQDFEKRIEKIKKEVINDPDVKQFLEAHRAELTNAMIDEDLNVLQEYKDQQKHYDGHKFADCPNFVKGHVPELYVDNNRIKIRYLQCPCKIKYDEERFEAELITSHHMQRDTLNAKLKDIYMNHRDRLDVAMAADDICTAITNGEQVKGLYLYGPFGTGKSFILGAIANQLKSKKVRSTIIYLPEFIRTLKGGFKDGSFEKKLHRVREANILMLDDIGAEEVTPWVRDEVIGPLLHYRMVHELPTFFSSNFDYSELEHHLAMTRDGEEKTKAARIIERVKSLSTPYFLSGENFRNN
notes: also called DnaI homolog; DnaI related protein

Columns and labels:
[1] = target: Gal4 DNA binding domain fused to phage 77 ORF104 (pGBK77ORF104) (yeast; Staphylococcus aureus …, UniProt P04386 1-147); test: yeast two-hybrid: growth of co-transformants on THAL minus SD medium; all six sectors show growth on TL minus SD medium
[2] = target: B6; test: affinity chromatography: S. aureus extract (French pressure cell and sonication) on micro-columns with ligand cross-linked at 0, 0.1, 0.5, 1.0 and 2.0 mg/ml resin; eluate with 1% Triton X-100; 12.5% SDS-PAGE, silver stain
[3] = target: B6; test: affinity chromatography of S. aureus extract, elution with 1% Triton X-100 and 1% SDS, silver stain, MALDI-ToF identification
[4] = target: Gal4 DNA binding domain fused to full-length S. aureus DnaI (pGBK dnaI) (yeast; Staphylococcus aureus, UniProt P04386 1-147); test: yeast two-hybrid: growth of co-transformants on SD plate without Trp, Leu, His and Ade (HIS3 and ADE2 reporters); all six sectors grow on the SD plate without Trp and Leu
GST = target: T1, GST (UniProt P08515 1-218 = GST); test: affinity chromatography: S. aureus extract (French pressure cell and sonication) on micro-columns with GST cross-linked at 0 to 2.0 mg/ml resin; eluate with 1% SDS; 12.5% SDS-PAGE, silver stain
T1 construct: also called GST ligand (control)
T1 sequence (P08515 whole entry): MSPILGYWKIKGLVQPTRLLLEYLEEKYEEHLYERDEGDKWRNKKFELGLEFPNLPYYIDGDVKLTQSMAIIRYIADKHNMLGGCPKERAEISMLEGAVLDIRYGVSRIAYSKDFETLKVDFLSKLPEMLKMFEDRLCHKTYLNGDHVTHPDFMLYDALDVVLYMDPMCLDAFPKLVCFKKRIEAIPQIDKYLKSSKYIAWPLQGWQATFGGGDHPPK

B1: Gal4 activation domain fused to S. aureus DnaI amino acids 150 to 313 (other)
chain: AADDICTAITNGEQVKGLYLYGPFGTGKSFILGAIANQLKSKKVRSTIIYLPEFIRTLKGGFKDGSFEKKLHRVREANILMLDDIGAEEVTPWVRDEVIGPLLHYRMVHELPTFFSSNFDYSELEHHLAMTRDGEEKTKAARIIERVKSLSTPYFLSGENFRNN
binding result [1]: binds

B2: GST/ORF104 fusion protein (other)
chain: MVTKEFLKTKLECSDMYAQKLIDEAQGDENRLYDLFIQKLAERHTRPAIVEY
notes: also called GST-fusion of ORF 104; not shown: GST moiety encoded by expression vector pGEX 4T-1 (Pharmacia)
binding result [2]: binds

B3: bacteriophage 77 ORF 104 protein (GST removed) (other)
chain: MVTKEFLKTKLECSDMYAQKLIDEAQGDENRLYDLFIQKLAERHTRPAIVEY
notes: also called phage 77 ORF 104 gene product
binding result [3]: binds

B4: Gal4 activation domain fused to phage 77 ORF104 (pGAD77ORF104) (other)
chain: MVTKEFLKTKLECSDMYAQKLIDEAQGDENRLYDLFIQKLAERHTRPAIVEY
binding result [4]: binds

B5: Gal4 activation domain (GAD) fused to full-length S. aureus DnaI (pGAD dnaI) (other)
chain: MGGGQSIMKQFKSIINTSQDFEKRIEKIKKEVINDPDVKQFLEAHRAELTNAMIDEDLNVLQEYKDQQKHYDGHKFADCPNFVKGHVPELYVDNNRIKIRYLQCPCKIKYDEERFEAELITSHHMQRDTLNAKLKDIYMNHRDRLDVAMAADDICTAITNGEQVKGLYLYGPFGTGKSFILGAIANQLKSKKVRSTIIYLPEFIRTLKGGFKDGSFEKKLHRVREANILMLDDIGAEEVTPWVRDEVIGPLLHYRMVHELPTFFSSNFDYSELEHHLAMTRDGEEKTKAARIIERVKSLSTPYFLSGENFRNN
binding result [1]: binds

B6
binding result (GST): no binding (tested: 2.0 mg/ml resin)

B7: Gal4 activation domain fused to S. aureus DnaI amino acids 64 to 313 (other)
chain: YKDQQKHYDGHKFADCPNFVKGHVPELYVDNNRIKIRYLQCPCKIKYDEERFEAELITSHHMQRDTLNAKLKDIYMNHRDRLDVAMAADDICTAITNGEQVKGLYLYGPFGTGKSFILGAIANQLKSKKVRSTIIYLPEFIRTLKGGFKDGSFEKKLHRVREANILMLDDIGAEEVTPWVRDEVIGPLLHYRMVHELPTFFSSNFDYSELEHHLAMTRDGEEKTKAARIIERVKSLSTPYFLSGENFRNN
binding result [1]: binds
